# Measured values: publication PMC12881857, “The MabZIP5–MaMYB69 module cooperates with MaERF55 to modulate banana fruit ripening via cell wall degradation”
# Substitutions are numbered along the chain they refer to.
# T1: GST-MaMYB69 (banana, UniProt A0A804IQI7 1-348)
# T1 sequence: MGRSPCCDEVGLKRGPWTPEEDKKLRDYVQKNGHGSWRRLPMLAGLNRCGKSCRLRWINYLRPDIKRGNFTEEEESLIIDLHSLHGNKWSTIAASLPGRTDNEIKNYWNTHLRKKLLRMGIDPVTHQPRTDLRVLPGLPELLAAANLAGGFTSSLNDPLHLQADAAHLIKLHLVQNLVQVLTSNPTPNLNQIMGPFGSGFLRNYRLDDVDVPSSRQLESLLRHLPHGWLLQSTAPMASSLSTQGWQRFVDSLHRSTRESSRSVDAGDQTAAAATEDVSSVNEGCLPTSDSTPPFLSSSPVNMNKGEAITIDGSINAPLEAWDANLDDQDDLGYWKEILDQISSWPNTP
# B1: MaGAL promoter probe (dsDNA)
# DNA 1: GTAGGGAGACCAAATTGCTTGTGTGTGTTTGGTAGATAAA
# DNA 2: TTTATCTACCAAACACACACAAGCAATTTGGTCTCCCTAC
# B2: MaMYB69 mutant probe (dsDNA)
# DNA 1: AGGTGCCATGCCGCACTTTTTTAAAAAATCTGCCCTTTTG
# DNA 2: CAAAAGGGCAGATTTTTTAAAAAAGTGCGGCATGGCACCT
# B3: MaPL1 promoter probe (dsDNA)
# DNA 1: TCCTGCATCTTGGACGAGTTTGGTGTACCCAAAGAGGACG
# DNA 2: CGTCCTCTTTGGGTACACCAAACTCGTCCAAGATGCAGGA
# B4: MaPG3 mutant probe (dsDNA)
# DNA 1: AGGCATCCAACAACTTTCTCCTTTTTTCTTGCTTGCATAC
# DNA 2: GTATGCAAGCAAGAAAAAAGGAGAAAGTTGTTGGATGCCT
# B5: MaPE promoter probe (dsDNA)
# DNA 1: GTGTCGATGGTGAAGTGTTTGGAGAAGTAGGAGCGGCAGC
# DNA 2: GCTGCCGCTCCTACTTCTCCAAACACTTCACCATCGACAC
# B6: MaPE mutant probe (dsDNA)
# DNA 1: B5 DNA 1 with G6A, T8A, G9A, G10A, T11A
# DNA 2: B5 DNA 2 with A30T, C31T, C32T, A33T, C35T
# B7: MaACO1 promoter probe (dsDNA)
# DNA 1: ATTGCTTTCTTGTGGCCACCAACCGGAGAAAGGGAGTCTA
# DNA 2: TAGACTCCCTTTCTCCGGTTGGTGGCCACAAGAAAGCAAT
# B8: MaMYB69 promoter probe (dsDNA)
# DNA 1: AGGTGCCATGCCGCACACCTAAACCTCTTCTGCCCTTTTG
# DNA 2: CAAAAGGGCAGAAGAGGTTTAGGTGTGCGGCATGGCACCT
# B9: MaPG3 promoter probe (dsDNA)
# DNA 1: AGGCATCCAACAACTTTCTCCACCAACCTTGCTTGCATAC
# DNA 2: GTATGCAAGCAAGGTTGGTGGAGAAAGTTGTTGGATGCCT
# B10: MaPL1 mutant probe (dsDNA)
# DNA 1: TCCTGCATCTTGGACGAGAAAAAAGTACCCAAAGAGGACG
# DNA 2: CGTCCTCTTTGGGTACTTTTTTCTCGTCCAAGATGCAGGA
# B11: MaGAL mutant probe (dsDNA)
# DNA 1: GTAGGGAGTTTTTTTTGCTTGTGTGTGAAAAAAAGATAAA
# DNA 2: TTTATCTTTTTTTCACACACAAGCAAAAAAAACTCCCTAC
# Columns and labels:
# [1] = target: T1, GST-MaMYB69; assay: EMSA; Chemiluminescent EMSA Kit (Beyotime); buffer, salt, pH and temperature not stated; details: protein: recombinant, tags: GST (N-term, pGEX-4T-1), blunt
# [2] = target: T1, GST-MaMYB69; assay: competition; 50-fold excess mutant competitor vs N9; Chemiluminescent EMSA Kit (Beyotime); buffer, salt, pH and temperature not stated; details: protein: recombinant; tags: GST (N-term, pGEX-4T-1); blunt
# [3] = target: T1, GST-MaMYB69; assay: competition; 50-fold excess mutant competitor vs N7; Chemiluminescent EMSA Kit (Beyotime); buffer, salt, pH and temperature not stated; details: protein: recombinant; tags: GST (N-term, pGEX-4T-1); blunt
# [4] = target: T1, GST-MaMYB69; assay: competition; 50-fold excess mutant competitor vs N1; Chemiluminescent EMSA Kit (Beyotime); buffer, salt, pH and temperature not stated; details: protein: recombinant; tags: GST (N-term, pGEX-4T-1); blunt
# [5] = target: T1, GST-MaMYB69; assay: competition; 50-fold excess mutant competitor vs N3; Chemiluminescent EMSA Kit (Beyotime); buffer, salt, pH and temperature not stated; details: protein: recombinant; tags: GST (N-term, pGEX-4T-1); blunt
# [6] = target: T1, GST-MaMYB69; assay: competition; 50-fold excess mutant competitor vs N5; Chemiluminescent EMSA Kit (Beyotime); buffer, salt, pH and temperature not stated; details: protein: recombinant; tags: GST (N-term, pGEX-4T-1); blunt
binder,measurement,setting,value
B1,binding result,[1]; label: biotin,binds
B2,binding result,[2],no binding
B3,binding result,[1]; label: biotin,binds
B4,binding result,[3],no binding
B5,binding result,[1]; label: biotin,binds
B6,binding result,[4],no binding
B7,binding result,[1],binds
B8,binding result,[1]; label: biotin,binds
B9,binding result,[1]; label: biotin,binds
B10,binding result,[5],no binding
B11,binding result,[6],no binding
